Biological target: T1, CD3εδ complex protein (human; alpaca, UniProt P07766 23-126; P04234 22-105)
T1 construct: they are not part of the secreted protein; also called human CD3; CD386 complex protein
Assay: ELISA, CD3 complex immobilized
Description: Binding activities of the anti-TSPAN8/anti-CD3 bispecific antibodies BTE-0001 to BTE-0067 to CD3 were evaluated by the ELISA. ELISA was performed according to a conventional method. The […] complex protein obtained in Example 1-3 was immobilized on a plate. BTE-0001 to BTE-0067 were used as the test antibodies. As a secondary antibody, Goat anti-Human IgG Fc, Multi-Species SP ads-HRP (2014-05, available from SouthernBiotech) was used. TMB+Substrate-Chromogen (S1599, available from Dako) was used as the detection reagent. Infinite M200pro (available from Tecan) was used to measure the absorbance. The EC50 values were calculated using variable slope model (four parameters) in GraphPad Prism with the maximum value in the same plate fixed at the top and the minimum value in the blank in the same plate fixed at the bottom. Since BTE-0001 was always measured in each plate as a control, only the EC50 value of BTE-0001 was expressed as the average value of a plurality of plates. […]

T1 sequence (P07766 23-126 limits assumed, stated change not applied, form in doubt, chain 1 of 2): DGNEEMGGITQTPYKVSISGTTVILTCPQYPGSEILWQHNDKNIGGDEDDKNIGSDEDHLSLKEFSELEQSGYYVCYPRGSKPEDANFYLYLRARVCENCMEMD
T1 sequence (P04234 22-105 limits assumed, stated change not applied, form in doubt, chain 2 of 2): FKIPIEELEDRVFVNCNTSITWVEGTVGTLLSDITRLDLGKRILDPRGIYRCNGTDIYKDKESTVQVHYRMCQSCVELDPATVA

Binder | EC50 [µg/mL]
BTE-0151 (bispecific antibody, human IgG1, kappa, L234A L235A, anti-CD37/anti-CD3) heavy: QVQLQQWGAGLLKPSETLSLTCAVYGGSFSPYYWSWIRQPPGKGLEWIGEINHSGSTNYNPSLKSRVTISVDTSKNQFSLKLSSVTAADTAVYYCARRAGDFDYWGQGTLVTVSSASTKGPSVFPLAPSSKSTSGGTAALGCLVKDYFPEPVTVSWNSGALTSGVHTFPAVLQSSGLYSLSSVVTVPSSSLGTQTYICNVNHKPSNTKVDKKVEPKSCDKTHTCPPCPAPEAAGGPSVFLFPPKPKDTLMISRTPEVTCVVVDVSHEDPEVKFNWYVDGVEVHNAKTKPREEQYNSTYRVVSVLTVLHQDWLNGKEYKCKVSNKALAAPIEKTISKAKGQPREPQVYTLPPSRDELTKNQVSLSCAVKGFYPSDIAVEWESNGQPENNYKTTPPVLDSDGSFFLVSKLTVDKSRWQQGNVFSCSVMHEALHNHYTQKSLSLSPGK light: not shown scFv: not shown | 0.0747
BTE-0140 (bispecific antibody, human IgG1, kappa, L234A L235A, anti-CD37/anti-CD3) heavy: QVQLQQWGAGLLKPSETLSLTCAVYGGSFSPYYWSWIRQPPGKGLEWIGEINHSGSTNYNPSLKSRVTISVDTSKNQFSLKLSSVTAADTAVYYCARRAGDFDYWGQGTLVTVSSASTKGPSVFPLAPSSKSTSGGTAALGCLVKDYFPEPVTVSWNSGALTSGVHTFPAVLQSSGLYSLSSVVTVPSSSLGTQTYICNVNHKPSNTKVDKKVEPKSCDKTHTCPPCPAPEAAGGPSVFLFPPKPKDTLMISRTPEVTCVVVDVSHEDPEVKFNWYVDGVEVHNAKTKPREEQYNSTYRVVSVLTVLHQDWLNGKEYKCKVSNKALAAPIEKTISKAKGQPREPQVYTLPPSRDELTKNQVSLSCAVKGFYPSDIAVEWESNGQPENNYKTTPPVLDSDGSFFLVSKLTVDKSRWQQGNVFSCSVMHEALHNHYTQKSLSLSPGK light: not shown scFv: not shown | 0.205
BTE-0139 (bispecific antibody, human IgG1, kappa, L234A L235A, anti-CD37/anti-CD3) heavy: QVQLQQWGAGLLKPSETLSLTCAVYGGSFSPYYWSWIRQPPGKGLEWIGEINHSGSTNYNPSLKSRVTISVDTSKNQFSLKLSSVTAADTAVYYCARRAGDFDYWGQGTLVTVSSASTKGPSVFPLAPSSKSTSGGTAALGCLVKDYFPEPVTVSWNSGALTSGVHTFPAVLQSSGLYSLSSVVTVPSSSLGTQTYICNVNHKPSNTKVDKKVEPKSCDKTHTCPPCPAPEAAGGPSVFLFPPKPKDTLMISRTPEVTCVVVDVSHEDPEVKFNWYVDGVEVHNAKTKPREEQYNSTYRVVSVLTVLHQDWLNGKEYKCKVSNKALAAPIEKTISKAKGQPREPQVYTLPPSRDELTKNQVSLSCAVKGFYPSDIAVEWESNGQPENNYKTTPPVLDSDGSFFLVSKLTVDKSRWQQGNVFSCSVMHEALHNHYTQKSLSLSPGK light: not shown scFv: not shown | 0.444
BTE-0138 (bispecific antibody, human IgG1, kappa, L234A L235A, anti-CD37/anti-CD3) heavy: QVQLQQWGAGLLKPSETLSLTCAVYGGSFSPYYWSWIRQPPGKGLEWIGEINHSGSTNYNPSLKSRVTISVDTSKNQFSLKLSSVTAADTAVYYCARRAGDFDYWGQGTLVTVSSASTKGPSVFPLAPSSKSTSGGTAALGCLVKDYFPEPVTVSWNSGALTSGVHTFPAVLQSSGLYSLSSVVTVPSSSLGTQTYICNVNHKPSNTKVDKKVEPKSCDKTHTCPPCPAPEAAGGPSVFLFPPKPKDTLMISRTPEVTCVVVDVSHEDPEVKFNWYVDGVEVHNAKTKPREEQYNSTYRVVSVLTVLHQDWLNGKEYKCKVSNKALAAPIEKTISKAKGQPREPQVYTLPPSRDELTKNQVSLSCAVKGFYPSDIAVEWESNGQPENNYKTTPPVLDSDGSFFLVSKLTVDKSRWQQGNVFSCSVMHEALHNHYTQKSLSLSPGK light: not shown scFv: not shown | 0.071
BTE-0136 (bispecific antibody, human IgG1, kappa, L234A L235A, anti-CD37/anti-CD3) heavy: QVQLQQWGAGLLKPSETLSLTCAVYGGSFSPYYWSWIRQPPGKGLEWIGEINHSGSTNYNPSLKSRVTISVDTSKNQFSLKLSSVTAADTAVYYCARRAGDFDYWGQGTLVTVSSASTKGPSVFPLAPSSKSTSGGTAALGCLVKDYFPEPVTVSWNSGALTSGVHTFPAVLQSSGLYSLSSVVTVPSSSLGTQTYICNVNHKPSNTKVDKKVEPKSCDKTHTCPPCPAPEAAGGPSVFLFPPKPKDTLMISRTPEVTCVVVDVSHEDPEVKFNWYVDGVEVHNAKTKPREEQYNSTYRVVSVLTVLHQDWLNGKEYKCKVSNKALAAPIEKTISKAKGQPREPQVYTLPPSRDELTKNQVSLSCAVKGFYPSDIAVEWESNGQPENNYKTTPPVLDSDGSFFLVSKLTVDKSRWQQGNVFSCSVMHEALHNHYTQKSLSLSPGK light: not shown scFv: not shown | 0.0669
BTE-0143 (bispecific antibody, human IgG1, kappa, L234A L235A, anti-CD37/anti-CD3) heavy: QVQLQQWGAGLLKPSETLSLTCAVYGGSFSPYYWSWIRQPPGKGLEWIGEINHSGSTNYNPSLKSRVTISVDTSKNQFSLKLSSVTAADTAVYYCARRAGDFDYWGQGTLVTVSSASTKGPSVFPLAPSSKSTSGGTAALGCLVKDYFPEPVTVSWNSGALTSGVHTFPAVLQSSGLYSLSSVVTVPSSSLGTQTYICNVNHKPSNTKVDKKVEPKSCDKTHTCPPCPAPEAAGGPSVFLFPPKPKDTLMISRTPEVTCVVVDVSHEDPEVKFNWYVDGVEVHNAKTKPREEQYNSTYRVVSVLTVLHQDWLNGKEYKCKVSNKALAAPIEKTISKAKGQPREPQVYTLPPSRDELTKNQVSLSCAVKGFYPSDIAVEWESNGQPENNYKTTPPVLDSDGSFFLVSKLTVDKSRWQQGNVFSCSVMHEALHNHYTQKSLSLSPGK light: not shown scFv: not shown | 0.0644
BTE-0142 (bispecific antibody, human IgG1, kappa, L234A L235A, anti-CD37/anti-CD3) heavy: QVQLQQWGAGLLKPSETLSLTCAVYGGSFSPYYWSWIRQPPGKGLEWIGEINHSGSTNYNPSLKSRVTISVDTSKNQFSLKLSSVTAADTAVYYCARRAGDFDYWGQGTLVTVSSASTKGPSVFPLAPSSKSTSGGTAALGCLVKDYFPEPVTVSWNSGALTSGVHTFPAVLQSSGLYSLSSVVTVPSSSLGTQTYICNVNHKPSNTKVDKKVEPKSCDKTHTCPPCPAPEAAGGPSVFLFPPKPKDTLMISRTPEVTCVVVDVSHEDPEVKFNWYVDGVEVHNAKTKPREEQYNSTYRVVSVLTVLHQDWLNGKEYKCKVSNKALAAPIEKTISKAKGQPREPQVYTLPPSRDELTKNQVSLSCAVKGFYPSDIAVEWESNGQPENNYKTTPPVLDSDGSFFLVSKLTVDKSRWQQGNVFSCSVMHEALHNHYTQKSLSLSPGK light: not shown scFv: not shown | 0.292
BTE-0141 (bispecific antibody, human IgG1, kappa, L234A L235A, anti-CD37/anti-CD3) heavy: QVQLQQWGAGLLKPSETLSLTCAVYGGSFSPYYWSWIRQPPGKGLEWIGEINHSGSTNYNPSLKSRVTISVDTSKNQFSLKLSSVTAADTAVYYCARRAGDFDYWGQGTLVTVSSASTKGPSVFPLAPSSKSTSGGTAALGCLVKDYFPEPVTVSWNSGALTSGVHTFPAVLQSSGLYSLSSVVTVPSSSLGTQTYICNVNHKPSNTKVDKKVEPKSCDKTHTCPPCPAPEAAGGPSVFLFPPKPKDTLMISRTPEVTCVVVDVSHEDPEVKFNWYVDGVEVHNAKTKPREEQYNSTYRVVSVLTVLHQDWLNGKEYKCKVSNKALAAPIEKTISKAKGQPREPQVYTLPPSRDELTKNQVSLSCAVKGFYPSDIAVEWESNGQPENNYKTTPPVLDSDGSFFLVSKLTVDKSRWQQGNVFSCSVMHEALHNHYTQKSLSLSPGK light: not shown scFv: not shown | 0.029
BTE-0144 (bispecific antibody, human IgG1, kappa, L234A L235A, anti-CD37/anti-CD3) heavy: QVQLQQWGAGLLKPSETLSLTCAVYGGSFSPYYWSWIRQPPGKGLEWIGEINHSGSTNYNPSLKSRVTISVDTSKNQFSLKLSSVTAADTAVYYCARRAGDFDYWGQGTLVTVSSASTKGPSVFPLAPSSKSTSGGTAALGCLVKDYFPEPVTVSWNSGALTSGVHTFPAVLQSSGLYSLSSVVTVPSSSLGTQTYICNVNHKPSNTKVDKKVEPKSCDKTHTCPPCPAPEAAGGPSVFLFPPKPKDTLMISRTPEVTCVVVDVSHEDPEVKFNWYVDGVEVHNAKTKPREEQYNSTYRVVSVLTVLHQDWLNGKEYKCKVSNKALAAPIEKTISKAKGQPREPQVYTLPPSRDELTKNQVSLSCAVKGFYPSDIAVEWESNGQPENNYKTTPPVLDSDGSFFLVSKLTVDKSRWQQGNVFSCSVMHEALHNHYTQKSLSLSPGK light: not shown scFv: not shown | 0.138
BTE-0146 (bispecific antibody, human IgG1, kappa, L234A L235A, anti-CD37/anti-CD3) heavy: QVQLQQWGAGLLKPSETLSLTCAVYGGSFSPYYWSWIRQPPGKGLEWIGEINHSGSTNYNPSLKSRVTISVDTSKNQFSLKLSSVTAADTAVYYCARRAGDFDYWGQGTLVTVSSASTKGPSVFPLAPSSKSTSGGTAALGCLVKDYFPEPVTVSWNSGALTSGVHTFPAVLQSSGLYSLSSVVTVPSSSLGTQTYICNVNHKPSNTKVDKKVEPKSCDKTHTCPPCPAPEAAGGPSVFLFPPKPKDTLMISRTPEVTCVVVDVSHEDPEVKFNWYVDGVEVHNAKTKPREEQYNSTYRVVSVLTVLHQDWLNGKEYKCKVSNKALAAPIEKTISKAKGQPREPQVYTLPPSRDELTKNQVSLSCAVKGFYPSDIAVEWESNGQPENNYKTTPPVLDSDGSFFLVSKLTVDKSRWQQGNVFSCSVMHEALHNHYTQKSLSLSPGK light: not shown scFv: not shown | 0.488
BTE-0137 (bispecific antibody, human IgG1, kappa, L234A L235A, anti-CD37/anti-CD3) heavy: QVQLQQWGAGLLKPSETLSLTCAVYGGSFSPYYWSWIRQPPGKGLEWIGEINHSGSTNYNPSLKSRVTISVDTSKNQFSLKLSSVTAADTAVYYCARRAGDFDYWGQGTLVTVSSASTKGPSVFPLAPSSKSTSGGTAALGCLVKDYFPEPVTVSWNSGALTSGVHTFPAVLQSSGLYSLSSVVTVPSSSLGTQTYICNVNHKPSNTKVDKKVEPKSCDKTHTCPPCPAPEAAGGPSVFLFPPKPKDTLMISRTPEVTCVVVDVSHEDPEVKFNWYVDGVEVHNAKTKPREEQYNSTYRVVSVLTVLHQDWLNGKEYKCKVSNKALAAPIEKTISKAKGQPREPQVYTLPPSRDELTKNQVSLSCAVKGFYPSDIAVEWESNGQPENNYKTTPPVLDSDGSFFLVSKLTVDKSRWQQGNVFSCSVMHEALHNHYTQKSLSLSPGK light: not shown scFv: not shown | 1.6
BTE-0145 (bispecific antibody, human IgG1, kappa, L234A L235A, anti-CD37/anti-CD3) heavy: QVQLQQWGAGLLKPSETLSLTCAVYGGSFSPYYWSWIRQPPGKGLEWIGEINHSGSTNYNPSLKSRVTISVDTSKNQFSLKLSSVTAADTAVYYCARRAGDFDYWGQGTLVTVSSASTKGPSVFPLAPSSKSTSGGTAALGCLVKDYFPEPVTVSWNSGALTSGVHTFPAVLQSSGLYSLSSVVTVPSSSLGTQTYICNVNHKPSNTKVDKKVEPKSCDKTHTCPPCPAPEAAGGPSVFLFPPKPKDTLMISRTPEVTCVVVDVSHEDPEVKFNWYVDGVEVHNAKTKPREEQYNSTYRVVSVLTVLHQDWLNGKEYKCKVSNKALAAPIEKTISKAKGQPREPQVYTLPPSRDELTKNQVSLSCAVKGFYPSDIAVEWESNGQPENNYKTTPPVLDSDGSFFLVSKLTVDKSRWQQGNVFSCSVMHEALHNHYTQKSLSLSPGK light: not shown scFv: not shown | 0.0854

— patent US20250304706A1 (Astellas, published 2025)
